The target of data set [1] is T1, RPA complex (UniProt P27694;P15927;P35244 1-616;1-270;1-121). Description: pull-down.
Data set [2] deals with T1, RPA complex. Description: pull-down. The source holds these as a separate data set.

Like-named read-outs stand apart in the source and are kept apart here.

T1 sequence (P27694 whole entry, chain 1 of 3): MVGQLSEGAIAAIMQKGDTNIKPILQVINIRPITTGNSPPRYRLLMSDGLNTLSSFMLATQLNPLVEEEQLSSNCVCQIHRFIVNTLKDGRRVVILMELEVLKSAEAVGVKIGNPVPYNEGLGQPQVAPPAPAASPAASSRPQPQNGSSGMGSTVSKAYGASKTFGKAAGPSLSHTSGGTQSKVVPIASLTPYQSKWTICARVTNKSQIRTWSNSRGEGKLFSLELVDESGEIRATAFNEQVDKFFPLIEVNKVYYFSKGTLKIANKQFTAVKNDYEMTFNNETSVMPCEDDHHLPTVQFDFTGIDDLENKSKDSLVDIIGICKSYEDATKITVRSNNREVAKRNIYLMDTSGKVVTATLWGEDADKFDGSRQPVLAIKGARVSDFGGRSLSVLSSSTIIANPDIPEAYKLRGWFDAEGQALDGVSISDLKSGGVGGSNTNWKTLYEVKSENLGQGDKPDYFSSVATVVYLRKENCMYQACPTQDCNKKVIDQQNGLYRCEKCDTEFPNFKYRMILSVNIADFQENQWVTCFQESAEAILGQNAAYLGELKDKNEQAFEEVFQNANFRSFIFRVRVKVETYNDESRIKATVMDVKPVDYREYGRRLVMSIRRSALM
T1 sequence (P15927 whole entry, chain 2 of 3): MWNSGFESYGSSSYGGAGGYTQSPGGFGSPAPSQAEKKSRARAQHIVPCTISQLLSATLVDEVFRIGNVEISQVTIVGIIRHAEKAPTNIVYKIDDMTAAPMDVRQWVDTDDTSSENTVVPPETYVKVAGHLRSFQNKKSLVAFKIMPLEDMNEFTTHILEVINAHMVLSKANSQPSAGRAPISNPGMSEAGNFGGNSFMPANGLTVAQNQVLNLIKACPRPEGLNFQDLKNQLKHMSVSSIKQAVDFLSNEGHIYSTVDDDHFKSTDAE
T1 sequence (P35244 whole entry, chain 3 of 3): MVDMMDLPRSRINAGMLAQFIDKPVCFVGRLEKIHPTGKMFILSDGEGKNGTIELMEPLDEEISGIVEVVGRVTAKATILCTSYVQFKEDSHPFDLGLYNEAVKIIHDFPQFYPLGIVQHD

As for TTAGGGTTAGGGTTAGGGTTAGGGTTAGGGTTAGGGTTAGGGTTAGGG (ssDNA) [ssTEL], the binding result with RPA complex [1] is “binds”.

As to TTTGCGTTTGCGTTTGCGTTTGCGTTTGCGTTTGCGTTTGCGTTTGCG (ssDNA) [ssMUT], in the data set with RPA complex [2], the binding result is listed as “binds”.

For the origin of these results see article PMC4499152.
